Test results reported in patent publication US11091749B2, “Deimmunized lysostaphin and methods of use” (TRUSTEES OF DARTMOUTH COLLEGE, priority 2014, dated 2021).

Legend:
[1] = Thermostability by differential scanning fluorimetry; assay type: physicochemical
Description: The relative thermostability of the lysostaphin variants was determined by differential scanning fluorimetry, as previously described (Niesen, et al. (2007) Nat. Protocols 2:2212-2221). Proteins and SYPRO Orange were diluted in PBS (final concentrations of 100 μg/ml and 5× in 20 μl reaction volume, respectively), and fluorescence was quantified at 1-degree increments from 25 to 94° C. using an Applied Biosystems ABI 7500 fast real-time PCR system. The reactions were performed using PCR Plates for Fast Thermocyclers (VWR; Radnor, Pa.). Fluorescence was quantified using the preset TAMRA parameters. Melting temperatures were determined by data analysis with the ‘DSF Analysis v3.0.xlsx’ EXCEL sheet and GraphPad Prism v.6.02 software.

[2] = P. pastoris expression level by SDS-PAGE; details: densitometry of SDS-PAGE gels
Description: After DH5a clones were confirmed for the presence of correct catalytic domain mutation by sequence analysis, the purified plasmid was digested with SacI High-Fidelity restriction enzyme prior to electroporation into P. pastoris strain GS115. The resulting transformants were grown on MD plates (1.34% yeast nitrogen base, 0.000004% biotin, 2% dextrose and 1% agar). For expression studies, clones were grown in BMGY media (1% yeast extract, 2% peptone, 1.34% yeast nitrogen base, 0.000004% biotin, 1% glycerol, 100 mM phosphate buffer, pH 6) at 30° C. in 500 ml shake flasks covered with four layers of cheese cloth for enhanced oxygen flow to the yeast. […] The purity of lysostaphin was determined using SDS-PAGE. The protein concentration was quantified using ND-1000 Spectrophotometer (NanoDrop Technologies; Wilmington, Del.). To ensure accuracy, protein absorbance measure was adjusted using the absorbance adjustment factor of 0.4 for both wild-type lysostaphin and its variants. Briefly, the adjustment factor was calculated as the inverse of the reported Abs 0.1% (=1 g/L) value (ProtParam, ExPASy).
The amount of protein used in each assay was estimated from SDS-PAGE gels. […] The gel was stained using GELCODE Blue Stain Reagent from Thermo Fisher Scientific (Carlsbad, Calif.) and bands quantified using Quantity Tools from Image Lab 5.1 software (Bio-Rad Laboratories; Hercules, Calif.). […]

MRSA strain USA400 [3] = assay: S. aureus recurrent bacteremia model, in vivo efficacy; design: species or system DR4 mice; details: 500 μg i.v.
Description: Prior to bacterial challenge, the immune systems of DR4 mice (N=3 per group) were primed 3-times with weekly subcutaneous injections of 100 μg LST^WT or Lib5 variant in sterile phosphate buffered saline (PBS: 2.7 mM KCl, 1.5 mM KH2PO4, 8.9 mM Na2HPO4, 136.9 mM NaCl, pH 7.4). These immunizations and boosts contained no adjuvant. Anti-LST antibody titers were determined as described above. For the first cycle of infection and treatment, mice were challenged with intraperitoneal administration of 2×10^8 CFU Staphylococcus aureus strain USA400 in a 3% suspension of porcine mucin, and one hour later were treated by intravenous tail vein administration of 500 μg of LST^WT or Lib5 variant in sterile PBS. Mice that were rescued by the enzyme treatment underwent subsequent infection and treatment cycles at weekly intervals. To compensate for development of innate murine antibacterial immunity following the first bacterial exposure, mice were challenged with 1×10^9 CFU USA400 in the second and third cycles, but the treatments remained at 500 μg of the appropriate protein. As a control to verify the lethal bacterial dose in each cycle, one mouse was given a sham treatment of PBS.
Using an S. aureus recurrent bacteremia model, the extent to which LST immunogenicity impacted in vivo efficacy was subsequently evaluated. […]

MRSA strain USA400 [4] = assay: In vitro inhibitory activity (MIC); assay type: cell-based, Staphylococcus aureus; details: 50° C. for 1 hour prior to assay
Description: F11, P12 and F13 were screened for in vitro inhibitory activity against MRSA strain USA400 (FIG. 7).

In the case of “Wild-Type: wild-type lysostaphin (SEQ ID NO:49) produced in P. pastoris; aglycosylated Ser126Pro backbone in the design studies [reference compound]”, the Tm ([1]; SYPRO Orange, PBS) is reported as 59.2 °C, the Tm ([1]; biological duplicates) is reported as 59.0 °C and the “Expression Level (% WT)” value [2] is reported as 100 % WT. The rescue from infection (MRSA strain USA400 [3]; first cycle, 2×10^8 CFU i.p.) was “rescued”, the rescue from infection (MRSA strain USA400 [3]; second cycle, 10^9 CFU) was “failed to rescue any of the three treated mice” and the “retained original MIC activity after heating” value (MRSA strain USA400 [4]) was “full”.
